In patent US20230212319A1, “NOVEL ANTIGEN BINDING DOMAINS AND SYNTHETIC ANTIGEN RECEPTORS INCORPORATING THE SAME” (University of Southern California, priority 2020, published 2023):

Assays:
Format in all cases: cell-based
Nalm6 cells = assay: JNG assay, co-culture with Nalm6 cells; conditions: co-culture with Nalm6 cells
Outline: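 SAR-JNG (lentiviral spinfection, drug-selected) + target cells, E:T ≈1:2, ≈4–18 h; FACS for GFP; positivity = %GFP+ over parental JNG; grades +/- to 5+ ≈ 5–50% GFP+.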

RAJI cells = assay: JNG assay, co-culture with RAJI cells; conditions: for NFAT-GFP ASSAY: Raji: JNG cells expressing construct, co-culture with Raji
Outline: (§1)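 Jurkat-NFAT-GFP (JNG) cells stably expressing SAR constructs via lentiviral transduction and puromycin/blasticidin selection were cocultured with target cells at E:T ~1:2 for ~4–18 h. NFAT-driven GFP was measured by FACS versus parental JNG cells; scores +/- to 5+ denote ~5–50% GFP-positive cells.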

HEL 92.1.7 cells = assay: JNG assay, co-culture with HEL 92.1.7 cells; conditions: for NFAT-GFP ASSAY: HEL 92.1.7: co-culture with HEL 92.1.7
Method: Cellular supernatant is collected and assayed for the induction of cytokines (e.g., IL2).
JNG (Jurkat cells expressing EGFP under an NFAT promoter) were infected with lentiviral vectors encoding different single chain and multi-chain SARs by spinfection in the presence of 8 µg/ml of Polybrene® (Sigma, Catalog no. H9268). The Jurkat-NFAT-GFP cells are engineered in such a way that the IL-2 promoter, which carries NFAT binding sites, is cloned upstream of the GFP gene. These cells have been used to study signaling via TCR and CAR. The different SARs were stably expressed in Jurkat NFAT-GFP cells by lentiviral mediated gene transfer, followed by selection with puromycin or blasticidin. No drug selection was used in case the construct lacked an antibiotic resistance gene. The SAR-expressing Jurkat-NFAT-GFP cells were cocultured with the target cells at E:T ratio of approximately 1:2 for approximately 4 hours to 18 hours. When the interaction between SIRs and their target antigen results in activation of the NFAT pathway, GFP expression is induced. […] GFP expression was monitored by FACS analysis. The Jurkat-NFAT-GFP (parental) cells were used as control. The structure of different constructs can be determined based on their names. […] The sequence of the other constructs in the table can be similarly determined from their names and by referring to the different Tables of this disclosure that provide the names and SEQ ID NO of the different modules. Alternatively, the composition and modular architecture of the different SAR constructs can be determined from their sequences by bioinformatics tools, including using nucleic acid and amino acids homology searches. […] The signs +/-, +, 2+ etc. after the name of the cell lines indicate the relative degree of positivity on the Jurkat-NFAT-GFP assay as measured by the % GFP positive cells after culture of the SAR expressing Jurkat-NFAT-GFP cells with that cell line above the % GFP cells observed in parental Jurkat NFAT-GFP cells serving as controls. […]

L363 cells = assay: JNG assay, co-culture with L363 cells; conditions: co-culture with L363
Outline: as §1

U266 cells = assay: JNG NFAT-GFP induction on co-culture with U266

| Molecule | GFP induction / activity (Nalm6 cells) | GFP induction / activity (RAJI cells; co-culture with RAJI cells) | GFP induction (HEL 92.1.7 cells; co-culture with MPL expressing HEL 92.1.7 cells) | NFAT-GFP ASSAY: L363 (L363 cells) | NFAT-GFP ASSAY: Raji (RAJI cells) | NFAT-GFP ASSAY: U266 (U266 cells) | NFAT-GFP ASSAY: HEL 92.1.7 (HEL 92.1.7 cells) |
| --- | --- | --- | --- | --- | --- | --- | --- |
| SEQ ID NO: 21975: bispecific SIR: MPL-175 scFv linked to hCD19-Bu12 scFv attached to hTCRα-CSDVP via MYC tag; hTCRβ-KACIAH carries a V5 tag (protein) MALPVTALLLPLALLLHAARPLEGKPIPNPLLGLDSTGSGEDLKNVFPPEVAVFEPSKAEIAHTQKATLVCLATGFYPDHVELSWWVNGKEVHSGVCTDPQPLKEQPALNDSRYCLSSRLRVSATFWQNPRNHFRCQVQFYGLSENDEWTQDRAKPVTQIVSAEAWGRADCGITSASYHQGVLSATILYEILLGKATLYAVLVSALVLMAMVKRKDSRGRAKRSGSGATNFSLLKQAGDVEENPGPTSMALPVTALLLPLALLLHAARPDQIVLTQSPAIMSASPGEKVTISCSASSSVSYMYWYQQKPGSSPKPWIYRTSNLASGVPARFSGSGSGTSYSLTISNMEAEDAAAYYCQQYHSYPTTFGGGTKLEVKGGGGSGGGGSGGGGSEVQLVESGGGLVQPKGSLKLSCAASGFSFNTYAMNWVRQAPGKGLEWIAHIRSKSNNFATYYADSVKDRFSISRDASENILFLQMNNLKTEDTAMYYCVRQGGDFPMDYWGQGTSVTVSSTREAAAKEIVLTQSPATLSLSPGERATLSCSASSSVSYMHWYQQKPGQAPRLLIYDTSKLASGIPARFSGSGSGTDFTLTISSLEPEDVAVYYCFQGSVYPFTFGQGTKLEIKRGGGGSGGGGSGGGGSQVQLQESGPGLVKPSQTLSLTCTVSGGSISTSGMGVGWIRQHPGKGLEWIGHIWWDDDKRYNPALKSRVTISVDTSKNQFSLKLSSVTAADTAVYYCARMELWSYYFDYWGQGTLVTVSSTREQKLISEEDGSGIQNPDPAVYQLRDSKSSDKSVCLFTDFDSQTNVSQSKDSDVYITDKCVLDMRSMDFKSNSAVAWSNKSDFACANAFNNSIIPEDTFFPSSDVPCDVKLVEKSFETDTNLNFQNLSVIGFRILLLKVAGFNLLMTLRLWSSRAKRSGSGVKQTLNFDLLKLAGDVESNPGPSRGHMTEYKPTVRLATRDDVPRAVRTLAAAFADYPATRHTVDPDRHIERVTELQELFLTRVGLDIGKVWVADDGAAVAVWTTPESVEAGAVFAEIGPRMAELSGSRLAAQQQMEGLLAPHRPKEPAWFLATVGVSPDHQGKGLGSAVVLPGVEAAERAGVPAFLETSAPRNLPFYERLGFTVTADVEVPEGPRTWCMTRKPGA | only weak activity | only weak activity | marginal GFP induction | – | – | – | – |
| 22149 (protein) MALPVTALLLPLALLLHAARPACEVQLLESGGGLIQPGGSLRLSCAASGFTFSSHAMTWVRQAPGKGLEWVSAISGSGDYTHYADSVKGRFTISRDNSKNTVYLQMNSLRAEDSAVYYCAKDEDGGSLLGHRGQGTLVTVSSGTGGGGSGGGGSGGGGSEFDVVMTQSPSSLSASVGDRVTITCMASEDIYIRLAWYQQKPGNAPKLLIYAATSLETGVPSRFSGSGSGTDFTLTISSLQPEDFATYYCQQYWSSPWTFGGGTKVEIKLEGQPKANPTVTLFPPSSEELQANKATLVCLISDFYPGAVTVAWKADGSPVKAGVETTKPSKQSNNKYAASSYLSLTPEQWKSHRSYSCQVTHEGSTVEKTVAPTECSGRADCGFTSESYQQGVLSATILYEILLGKATLYAVLVSALVLMAMVKRKDSRGRAKRSGSGATNFSLLKQAGDVEENPGPTSATMDWIWRILFLVGAATGAHSGPQVQLQESGGGLAQAGGSLRLSCAASGRTFSMGWFRQAPGKEREFVAAITYSGGSPYYASSVRGRFTISRDNAKNTVYLQMNSLKPEDTAVYYCAANPTYGSDWNAENWGQGTQVTVSSGSGGGGSGGGGSGGGGSFEQVQLQESGPGLVKPSQTLSLTCTVSGYSITSDYTWNWIRQPPGNGLEWIGYITYSGSTSYNPSLKSRVLISVDTSKNQVSLKLSSVTAADTAVYYCARLGRRYTMDYWGQGTTVTVSSTRASTKGPSVFPLAPSSKSTSGGTAALGCLVKDYFPEPVTVSWNSGALTSGVHTFPAVLQSSGLYSLSSVVTVPSSSLGTQTYICNVNHKPSNTKVDKRVEPKSCIPEDTFFPSPESSCDVKLVEKSFETDTNLNFQNLSVIGFRILLLKVAGFNLLMTLRLWSSRAKRSGSGVKQTLNFDLLKLAGDVESNPGPSRGHMTEYKPTVRLATRDDVPRAVRTLAAAFADYPATRHTVDPDRHIERVTELQELFLTRVGLDIGKVWVADDGAAVAVWTTPESVEAGAVFAEIGPRMAELSGSRLAAQQQMEGLLAPHRPKEPAWFLATVGVSPDHQGKGLGSAVVLPGVEAAERAGVPAFLETSAPRNLPFYERLGFTVTADVEVPEGPRTWCMTRKPGA | – | – | – | + (refer to approximately 5%, 10%, 20%, 30%, 40% and 50% GFP positive cells) | 3+ (refer to approximately 5%, 10%, 20%, 30%, 40% and 50% GFP positive cells) | 3+ (refer to approximately 5%, 10%, 20%, 30%, 40% and 50% GFP positive cells) | +/- (refer to approximately 5%, 10%, 20%, 30%, 40% and 50% GFP positive cells) |
| 22148 (protein) MALPVTALLLPLALLLHAARPACEVQLLESGGGLIQPGGSLRLSCAASGFTFSSHAMTWVRQAPGKGLEWVSAISGSGDYTHYADSVKGRFTISRDNSKNTVYLQMNSLRAEDSAVYYCAKDEDGGSLLGHRGQGTLVTVSSGTGGGGSGGGGSGGGGSEFDVVMTQSPSSLSASVGDRVTITCMASEDIYIRLAWYQQKPGNAPKLLIYAATSLETGVPSRFSGSGSGTDFTLTISSLQPEDFATYYCQQYWSSPWTFGGGTKVEIKLEGQPKANPTVTLFPPSSEELQANKATLVCLISDFYPGAVTVAWKADGSPVKAGVETTKPSKQSNNKYAASSYLSLTPEQWKSHRSYSCQVTHEGSTVEKTVAPTECSPIKTDVITMDPKDNCSKDANDTLLLQLTNTSAYYMYLLLLLKSVVYFAIITCCLLRRTAFCCNGEKSRAKRSGSGATNFSLLKQAGDVEENPGPTSATMDWIWRILFLVGAATGAHSGPQVQLQESGGGLAQAGGSLRLSCAASGRTFSMGWFRQAPGKEREFVAAITYSGGSPYYASSVRGRFTISRDNAKNTVYLQMNSLKPEDTAVYYCAANPTYGSDWNAENWGQGTQVTVSSGSGGGGSGGGGSGGGGSFEQVQLQESGPGLVKPSQTLSLTCTVSGYSITSDYTWNWIRQPPGNGLEWIGYITYSGSTSYNPSLKSRVLISVDTSKNQVSLKLSSVTAADTAVYYCARLGRRYTMDYWGQGTTVTVSSTRASTKGPSVFPLAPSSKSTSGGTAALGCLVKDYFPEPVTVSWNSGALTSGVHTFPAVLQSSGLYSLSSVVTVPSSSLGTQTYICNVNHKPSNTKVDKRVEPKSCEVKTDSTDHVKPKETENTKQPSKSCHKPKAIVHTEKVNMMSLTVLGLRMLFAKTVAVNFLLTAKLFFLRAKRSGSGVKQTLNFDLLKLAGDVESNPGPSRGHMTEYKPTVRLATRDDVPRAVRTLAAAFADYPATRHTVDPDRHIERVTELQELFLTRVGLDIGKVWVADDGAAVAVWTTPESVEAGAVFAEIGPRMAELSGSRLAAQQQMEGLLAPHRPKEPAWFLATVGVSPDHQGKGLGSAVVLPGVEAAERAGVPAFLETSAPRNLPFYERLGFTVTADVEVPEGPRTWCMTRKPGA | – | – | – | – | 3+ (refer to approximately 5%, 10%, 20%, 30%, 40% and 50% GFP positive cells) | – | + (refer to approximately 5%, 10%, 20%, 30%, 40% and 50% GFP positive cells) |
